Reference: article PMC4847750 (Nature structural & molecular biology, 2015)

B1: Im7-L18A L19A L37A (mimic of unfolded Im7, Im7U) (natural protein, UniProt Q03708 1-87, looked up)
chain: MELKNSISDYTEAEFVQAAKEIEKENVAATDDVLDVALEHFVKITEHPDGTDLIYYPSDNRDDSPEGIVKEIKEWRAANGKPGFKQG
B2: Im7-L53A I54A (mimic of the Im7 folding intermediate, Im7I) (natural protein, UniProt Q03708 1-87, looked up)
chain: MELKNSISDYTEAEFVQLLKEIEKENVAATDDVLDVLLEHFVKITEHPDGTDAAYYPSDNRDDSPEGIVKEIKEWRAANGKPGFKQG
B3: Immunity protein 7, wild type (Im7-WT) (natural protein, UniProt Q03708 1-87, looked up)
chain: MELKNSISDYTEAEFVQLLKEIEKENVAATDDVLDVLLEHFVKITEHPDGTDLIYYPSDNRDDSPEGIVKEIKEWRAANGKPGFKQG
B4: Spy (WT Spy), ATP-independent periplasmic chaperone (natural protein, Escherichia coli, UniProt P77754 24-161, looked up)
chain: ADTTTAAPADAKPMMHHKGKFGPHQDMMFKDLNLTDAQKQQIREIMKGQRDQMKRPPLEERRAMHDIIASDTFDKVKAEAQIAKMEEQRKANMLAHMETQNKIYNILTPEQKKQFNANFEKRLTERPAAKGKMPATAE

Key:
[1] = biological target: B4; test: stopped-flow fluorescence
[2] = biological target: B4; test: ITC
[3] = biological target: B3; test: ITC
[4] = biological target: B1; test: ITC
[5] = biological target: B2; test: ITC

Binder: B1
koff [1]: 210 s⁻¹
kon [1]: 1.3e+07 M⁻¹ s⁻¹
Kd [2]: 10.4 µM

Binder: B2
Kd [2]: 3.5 µM

Binder: B3
Kd [2]: 20.5 µM

Binder: B4
stoichiometry N [3]: 1 Spy dimer per Im7
stoichiometry N [4]: 1 Spy dimer per Im7
stoichiometry N [5]: 1 Spy dimer per Im7
